Kd data for 2 molecules are collected here from publication PMC8048981 (2021).

Bridge positions count the residues as written; N and C are the ends.

As usually defined, the Kd is a measure of binding affinity in units of concentration. High values mean a looser complex, low ones a tighter complex.

This assay has as its target MDM2 (Homo sapiens, UniProt Q00987). Briefly: fluorescence polarization. (In general: Fluorescence polarisation rises when a labelled molecule tumbles more slowly, as on binding a larger partner.)

Chain of MDM2 (Q00987 whole entry): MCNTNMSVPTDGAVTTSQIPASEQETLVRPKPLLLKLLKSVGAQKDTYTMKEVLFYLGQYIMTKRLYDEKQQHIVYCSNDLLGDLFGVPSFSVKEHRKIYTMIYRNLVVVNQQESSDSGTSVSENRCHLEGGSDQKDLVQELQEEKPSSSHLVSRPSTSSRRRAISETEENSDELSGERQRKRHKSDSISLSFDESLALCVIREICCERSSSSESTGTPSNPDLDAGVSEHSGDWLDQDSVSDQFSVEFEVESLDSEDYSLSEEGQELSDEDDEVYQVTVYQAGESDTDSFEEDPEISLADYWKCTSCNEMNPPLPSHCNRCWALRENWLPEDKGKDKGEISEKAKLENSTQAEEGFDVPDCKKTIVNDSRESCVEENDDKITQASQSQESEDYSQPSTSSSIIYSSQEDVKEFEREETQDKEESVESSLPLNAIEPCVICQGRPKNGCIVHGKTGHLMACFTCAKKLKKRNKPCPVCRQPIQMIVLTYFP

B1: linear p53-derived peptide 28' (peptide)
chain: {5(6)‑carboxyfluorescein}-QSQQTFCNLWRLLKQN-NH2
Molecule B1 showed a Kd of 346 nM. In other words, the sub-micromolar range.

B2: stapled p53-derived peptide 29a' (peptide)
chain: {5(6)‑carboxyfluorescein}-QSQQTFCNLWRLLKQN-NH2
modifications: linker 7-14 via para‑phenyl thioalkyne amide (reagent 9a)
In turn, B2 returned an equilibrium dissociation constant (Kd) of 29 nM.
